Values quoted from earlier work as cited in PMC3460238.
pKd: −log10 of the molar value. Like-named read-outs stand apart in the source and are kept apart here.

How the values were obtained:
[1] = biological target: C3b (Homo sapiens) (UniProt P01024)
[2] = biological target: C3b (Homo sapiens) (UniProt P01024); remark: listed apart in the source

Sequence of C3b (Homo sapiens) (P01024 23-667, chain 1 of 2): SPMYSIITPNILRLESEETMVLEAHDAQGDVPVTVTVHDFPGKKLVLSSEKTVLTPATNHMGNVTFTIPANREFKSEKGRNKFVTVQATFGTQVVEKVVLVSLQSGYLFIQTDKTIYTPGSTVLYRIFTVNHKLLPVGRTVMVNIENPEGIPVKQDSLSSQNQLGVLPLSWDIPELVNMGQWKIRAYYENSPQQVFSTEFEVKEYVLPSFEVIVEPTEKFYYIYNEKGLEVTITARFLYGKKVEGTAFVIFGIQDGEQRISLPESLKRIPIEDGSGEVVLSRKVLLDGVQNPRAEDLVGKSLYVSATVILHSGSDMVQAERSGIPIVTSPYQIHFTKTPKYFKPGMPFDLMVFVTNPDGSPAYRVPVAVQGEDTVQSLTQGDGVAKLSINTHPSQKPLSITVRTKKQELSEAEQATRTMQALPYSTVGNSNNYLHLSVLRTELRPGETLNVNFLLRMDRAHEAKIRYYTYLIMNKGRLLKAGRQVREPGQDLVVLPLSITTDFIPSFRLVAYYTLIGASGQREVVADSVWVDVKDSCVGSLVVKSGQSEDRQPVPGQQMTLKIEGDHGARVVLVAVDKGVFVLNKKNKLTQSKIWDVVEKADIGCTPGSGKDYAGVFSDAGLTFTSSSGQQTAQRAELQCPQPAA
Sequence of C3b (Homo sapiens) (P01024 749-1663, chain 2 of 2): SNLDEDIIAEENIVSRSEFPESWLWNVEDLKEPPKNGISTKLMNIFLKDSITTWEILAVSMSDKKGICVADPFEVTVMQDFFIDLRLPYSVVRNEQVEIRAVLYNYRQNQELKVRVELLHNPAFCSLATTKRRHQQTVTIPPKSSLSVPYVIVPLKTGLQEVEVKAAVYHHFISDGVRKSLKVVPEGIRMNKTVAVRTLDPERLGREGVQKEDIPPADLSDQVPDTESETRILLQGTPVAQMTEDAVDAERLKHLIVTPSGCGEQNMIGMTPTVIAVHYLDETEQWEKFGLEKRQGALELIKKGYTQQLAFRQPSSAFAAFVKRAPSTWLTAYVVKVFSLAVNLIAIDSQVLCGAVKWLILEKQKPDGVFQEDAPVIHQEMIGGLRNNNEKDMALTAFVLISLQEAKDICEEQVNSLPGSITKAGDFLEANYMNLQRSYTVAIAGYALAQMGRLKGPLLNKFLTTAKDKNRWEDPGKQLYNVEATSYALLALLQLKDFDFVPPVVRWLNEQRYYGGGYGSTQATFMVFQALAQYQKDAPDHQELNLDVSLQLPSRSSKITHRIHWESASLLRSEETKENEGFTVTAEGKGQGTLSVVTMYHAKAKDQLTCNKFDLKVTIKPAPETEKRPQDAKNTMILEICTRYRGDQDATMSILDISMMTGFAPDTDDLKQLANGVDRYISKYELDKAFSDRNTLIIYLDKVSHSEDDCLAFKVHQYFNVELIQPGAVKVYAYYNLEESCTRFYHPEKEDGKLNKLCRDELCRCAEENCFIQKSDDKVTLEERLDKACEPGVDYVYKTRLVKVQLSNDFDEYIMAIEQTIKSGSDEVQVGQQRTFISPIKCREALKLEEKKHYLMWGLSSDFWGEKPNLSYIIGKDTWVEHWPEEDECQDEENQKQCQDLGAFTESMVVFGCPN
Sequence of Factor H (62V) (P08603 19-1231): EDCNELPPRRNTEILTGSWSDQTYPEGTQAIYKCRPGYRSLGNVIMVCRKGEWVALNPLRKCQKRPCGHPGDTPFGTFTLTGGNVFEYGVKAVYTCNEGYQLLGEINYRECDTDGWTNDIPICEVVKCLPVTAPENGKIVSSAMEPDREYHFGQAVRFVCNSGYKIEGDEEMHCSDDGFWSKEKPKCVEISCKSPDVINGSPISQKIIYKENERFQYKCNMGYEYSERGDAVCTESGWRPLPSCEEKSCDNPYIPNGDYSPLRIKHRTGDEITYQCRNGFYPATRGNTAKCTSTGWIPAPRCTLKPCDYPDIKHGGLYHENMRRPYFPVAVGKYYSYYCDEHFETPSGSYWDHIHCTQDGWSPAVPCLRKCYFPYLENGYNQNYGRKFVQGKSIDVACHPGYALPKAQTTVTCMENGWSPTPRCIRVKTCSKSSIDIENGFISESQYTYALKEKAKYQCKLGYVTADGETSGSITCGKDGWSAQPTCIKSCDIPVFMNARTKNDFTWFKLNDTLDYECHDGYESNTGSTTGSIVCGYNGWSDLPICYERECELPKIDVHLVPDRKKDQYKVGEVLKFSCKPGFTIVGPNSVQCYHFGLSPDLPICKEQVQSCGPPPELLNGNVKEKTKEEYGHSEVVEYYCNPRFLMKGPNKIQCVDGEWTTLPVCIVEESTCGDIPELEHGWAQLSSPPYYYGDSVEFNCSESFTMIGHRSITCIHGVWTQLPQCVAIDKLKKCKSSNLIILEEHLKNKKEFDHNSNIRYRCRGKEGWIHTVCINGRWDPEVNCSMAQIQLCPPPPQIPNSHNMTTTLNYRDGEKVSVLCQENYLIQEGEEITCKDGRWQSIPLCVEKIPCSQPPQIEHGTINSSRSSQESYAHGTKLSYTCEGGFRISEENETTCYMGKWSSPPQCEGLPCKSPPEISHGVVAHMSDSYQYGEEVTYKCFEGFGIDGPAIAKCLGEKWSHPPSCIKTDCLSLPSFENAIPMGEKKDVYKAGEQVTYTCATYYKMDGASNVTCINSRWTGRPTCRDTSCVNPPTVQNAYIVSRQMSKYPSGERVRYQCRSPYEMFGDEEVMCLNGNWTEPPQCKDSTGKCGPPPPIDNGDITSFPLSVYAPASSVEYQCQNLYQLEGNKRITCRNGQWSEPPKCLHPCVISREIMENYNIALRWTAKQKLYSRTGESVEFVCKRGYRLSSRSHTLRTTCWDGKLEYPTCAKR

| pKd [1] | pKd [2] | Substance |
| --- | --- | --- |
| 6.00 |  | Factor H (62I) (from UniProt P08603) |
|  | 5.89 | Factor H (62V) (from UniProt P08603) |
